We go through two molecules from patent US20220064276A1 (SCHOLAR ROCK, published 2022).

A word on the Kd: it is the equilibrium constant for the complex coming apart. Lower therefore signals a tighter complex. A word on the koff: it is the first-order rate constant of dissociation. As usually defined, the kon is the second-order rate constant of association. A low value points to slow association.

Assay [1] concerns the target T1, human GARP-proTGFβ1 complex (human, UniProt Q14392 18-627; P01137 30-390, limits assumed).
T1 construct: Exemplary entries; also called Hu GARP-proTGFβ1; huGARP proTGFb1
The assay is described as follows: Octet BLI (N.B. = non-binder under conditions of this assay). The method, then:
(§1) Binding affinities of the optimized antibodies were measured by Octet against human LTBP1-proTGFβ1, human LTBP3-proTGFβ1, mouse LTBP1-proTGFβ1, mouse LTBP3-proTGFβ1, and GARP-proTGFβ1 complexes, essentially as described in Example 6. […] The antigens were allowed to associate for 3 minutes followed by a 5-minute dissociation. Kinetics buffer (ForteBio®) was used throughout the experiment, and KD was determined using a 1:1 fitting model for each antibody antigen pair.
Table 9 presents the binding profile and affinity data for the indicated LTBP complex-specific antibodies (IgG1-agly) identified from the light chain optimization cycle 3, determined by Octet.
On the technique in general: BLI is a label-free optical method that tracks binding on a fibre tip over time.

The target of assay [2] is T2, human LTBP1-proTGFβ1 complex (human, UniProt Q14766 347-1721; P01137 30-390).
T2 construct: Large latent complex: one presenting molecule disulfide-linked to a proTGFβ1 dimer; also called Hu LTBP1-proTGFβ1; huLTBP1 proTGFβ1
The experiment in a line: Octet BLI, IgG captured. As for the experimental part:
as §1
Target sequence in this assay (P01137 30-390 limits assumed, chain 2 of 2, one chain of several): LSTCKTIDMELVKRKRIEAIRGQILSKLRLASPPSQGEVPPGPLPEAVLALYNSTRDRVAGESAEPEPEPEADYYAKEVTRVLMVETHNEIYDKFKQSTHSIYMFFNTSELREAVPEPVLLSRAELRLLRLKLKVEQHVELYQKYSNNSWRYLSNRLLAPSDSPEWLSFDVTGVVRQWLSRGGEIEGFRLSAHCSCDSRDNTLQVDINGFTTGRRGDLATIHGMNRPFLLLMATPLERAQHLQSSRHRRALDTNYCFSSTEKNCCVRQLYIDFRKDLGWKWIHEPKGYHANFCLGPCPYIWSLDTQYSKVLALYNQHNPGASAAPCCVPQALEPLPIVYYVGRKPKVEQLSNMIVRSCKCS

The target of assay [3] is T3, human LTBP3-proTGFβ1 complex (human, UniProt Q9NS15 44-1303; P01137 30-390, limits assumed).
T3 construct: Exemplary entries; also called Hu LTBP3-proTGFβ1; huLTBP3 proTGFb1
T3 sequence (Q9NS15 44-1303 limits assumed, chain 1 of 2): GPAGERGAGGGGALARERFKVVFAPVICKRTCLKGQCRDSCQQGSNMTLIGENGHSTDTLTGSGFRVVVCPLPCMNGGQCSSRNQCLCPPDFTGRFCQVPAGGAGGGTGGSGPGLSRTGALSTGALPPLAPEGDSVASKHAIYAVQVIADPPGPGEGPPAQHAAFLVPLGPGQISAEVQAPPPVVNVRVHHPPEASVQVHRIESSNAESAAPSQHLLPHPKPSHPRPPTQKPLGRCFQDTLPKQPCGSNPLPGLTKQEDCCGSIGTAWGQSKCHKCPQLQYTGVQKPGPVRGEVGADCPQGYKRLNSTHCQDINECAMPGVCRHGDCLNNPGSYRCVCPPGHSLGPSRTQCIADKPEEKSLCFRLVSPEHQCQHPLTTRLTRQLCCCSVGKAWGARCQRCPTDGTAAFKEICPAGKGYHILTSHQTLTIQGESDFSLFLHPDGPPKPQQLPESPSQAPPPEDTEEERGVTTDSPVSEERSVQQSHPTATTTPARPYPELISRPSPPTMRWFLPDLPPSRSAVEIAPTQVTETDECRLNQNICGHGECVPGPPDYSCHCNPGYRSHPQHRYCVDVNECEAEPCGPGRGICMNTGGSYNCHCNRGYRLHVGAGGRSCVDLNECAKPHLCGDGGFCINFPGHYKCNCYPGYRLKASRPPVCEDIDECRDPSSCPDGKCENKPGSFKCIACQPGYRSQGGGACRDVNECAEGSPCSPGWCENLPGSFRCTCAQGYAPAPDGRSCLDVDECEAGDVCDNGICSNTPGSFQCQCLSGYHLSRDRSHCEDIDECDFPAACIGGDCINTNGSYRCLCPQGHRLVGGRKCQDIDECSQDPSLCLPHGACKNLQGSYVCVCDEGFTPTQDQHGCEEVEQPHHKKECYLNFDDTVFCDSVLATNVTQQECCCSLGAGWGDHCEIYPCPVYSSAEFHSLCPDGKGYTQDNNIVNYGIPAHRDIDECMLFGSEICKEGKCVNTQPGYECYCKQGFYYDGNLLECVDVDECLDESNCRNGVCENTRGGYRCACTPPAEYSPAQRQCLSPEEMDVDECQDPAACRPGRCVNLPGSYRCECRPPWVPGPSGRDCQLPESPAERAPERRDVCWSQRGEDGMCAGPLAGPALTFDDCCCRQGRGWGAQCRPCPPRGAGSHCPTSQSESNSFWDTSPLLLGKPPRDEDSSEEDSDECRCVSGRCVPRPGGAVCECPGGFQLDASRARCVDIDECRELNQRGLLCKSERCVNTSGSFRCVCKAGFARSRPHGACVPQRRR
T3 sequence (P01137 30-390 limits assumed, chain 2 of 2): as the sequence (P01137 30-390 limits assumed, chain 2 of 2, one chain of several) above
The experiment in a line: Octet BLI, IgG captured. As for the experimental part: as §1

The target in assay [4] is T4, mouse LTBP1-proTGFβ1 complex (mouse, UniProt Q8CG19 339-1712; P04202 30-390).
T4 construct: Exemplary entries; In the cell assays expressed from mouse LTBP1S and mouse proTGFb1 plasmids in LN229 cells; also called Mo LTBP1-proTGFβ1; MuLTBP1-ProTGFb1
The experiment in a line: Octet BLI, IgG captured. As for the experimental part:
as §1

Assay [5] has as its target T5, mouse LTBP3-proTGFβ1 complex (mouse, UniProt Q61810 41-1245; P04202 30-390, limits assumed).
T5 construct: Exemplary entries; also called Mo LTBP3-proTGFβ1; Murine LTBP3 proTGFb1
The experiment in a line: Octet BLI, IgG captured. The method, then:
as §1

In assay [6] the target is LTBP-proTGFβ1: transfected human proTGFβ1 presented by endogenous LTBP1/3 of LN229 cells (human). The experiment in a line: cell-based or functional assay.
LTBP-proTGFβ1: transfected human proTGFβ1 presented by endogenous LTBP1/3 of LN229 cells (human), sequence (P01137 30-390): as the sequence (P01137 30-390 limits assumed, chain 2 of 2, one chain of several) above
For assay [7], the target named is T4, mouse LTBP1-proTGFβ1 complex. The assay is described as follows: cell-based or functional assay.
Assay [8] concerns the target T2, human LTBP1-proTGFβ1 complex. The experiment in a line: Octet binning; competitor (immobilized second antibody) SR-AB1. As for the experimental part: (§2) 500 nM of human LTBP1-proTGFb1 complex was pre-incubated with 1 μM of each test antibody. After an overnight incubation, the LTBP1-proTGFβ1+first antibody was tested for binding to a second antibody which was immobilized to an Anti-Human IgG Fc Capture (AHC) sensor tip at 67 nM. The sensor tip was blocked with a negative control antibody (HuNeg) before seeing the LTBP1-proTGFβ1+first antibody.
(§3) Normalized responses less than 70% or less than 0.7 of the uninhibited interaction were considered antibodies that cross block.
Target sequence in this assay (P01137 30-390 limits assumed, one chain of several): as the sequence (P01137 30-390 limits assumed, chain 2 of 2, one chain of several) above

Assay [9] shares this target. The assay is described as follows: Octet binning; competitor (immobilized second antibody) SR-AB13. The method, then: as §2, §3
Target sequence in this assay (P01137 30-390 limits assumed, one chain of several): as the sequence (P01137 30-390 limits assumed, chain 2 of 2, one chain of several) above
The target in assay [10] is T1, human GARP-proTGFβ1 complex. The assay is described as follows: Octet (bio-layer interferometry), yeast expressed IgG1Agly antibody, antigen at a single 100 nM per Example 6.
For assay [11], the target named is T5, mouse LTBP3-proTGFβ1 complex. The assay is described as above.
Assay [12] addresses T6, mature TGFβ1 (UniProt P01137 279-390).
T6 construct: mature
The experiment in a line: FIG. 2B binding assay.

In assay [13] the target is T2, human LTBP1-proTGFβ1 complex. The experiment in a line: Octet binning; competitor (immobilized second antibody) SR-AB10. The method, then: as §2, §3
Target sequence in this assay (P01137 30-390 limits assumed, one chain of several): as the sequence (P01137 30-390 limits assumed, chain 2 of 2, one chain of several) above
Assay [14] addresses T7, LTBP1 alone (Homo sapiens (Human), UniProt Q14766 347-1721).
T7 construct: LTBP1 not in complex with TGFβ1
T7 sequence: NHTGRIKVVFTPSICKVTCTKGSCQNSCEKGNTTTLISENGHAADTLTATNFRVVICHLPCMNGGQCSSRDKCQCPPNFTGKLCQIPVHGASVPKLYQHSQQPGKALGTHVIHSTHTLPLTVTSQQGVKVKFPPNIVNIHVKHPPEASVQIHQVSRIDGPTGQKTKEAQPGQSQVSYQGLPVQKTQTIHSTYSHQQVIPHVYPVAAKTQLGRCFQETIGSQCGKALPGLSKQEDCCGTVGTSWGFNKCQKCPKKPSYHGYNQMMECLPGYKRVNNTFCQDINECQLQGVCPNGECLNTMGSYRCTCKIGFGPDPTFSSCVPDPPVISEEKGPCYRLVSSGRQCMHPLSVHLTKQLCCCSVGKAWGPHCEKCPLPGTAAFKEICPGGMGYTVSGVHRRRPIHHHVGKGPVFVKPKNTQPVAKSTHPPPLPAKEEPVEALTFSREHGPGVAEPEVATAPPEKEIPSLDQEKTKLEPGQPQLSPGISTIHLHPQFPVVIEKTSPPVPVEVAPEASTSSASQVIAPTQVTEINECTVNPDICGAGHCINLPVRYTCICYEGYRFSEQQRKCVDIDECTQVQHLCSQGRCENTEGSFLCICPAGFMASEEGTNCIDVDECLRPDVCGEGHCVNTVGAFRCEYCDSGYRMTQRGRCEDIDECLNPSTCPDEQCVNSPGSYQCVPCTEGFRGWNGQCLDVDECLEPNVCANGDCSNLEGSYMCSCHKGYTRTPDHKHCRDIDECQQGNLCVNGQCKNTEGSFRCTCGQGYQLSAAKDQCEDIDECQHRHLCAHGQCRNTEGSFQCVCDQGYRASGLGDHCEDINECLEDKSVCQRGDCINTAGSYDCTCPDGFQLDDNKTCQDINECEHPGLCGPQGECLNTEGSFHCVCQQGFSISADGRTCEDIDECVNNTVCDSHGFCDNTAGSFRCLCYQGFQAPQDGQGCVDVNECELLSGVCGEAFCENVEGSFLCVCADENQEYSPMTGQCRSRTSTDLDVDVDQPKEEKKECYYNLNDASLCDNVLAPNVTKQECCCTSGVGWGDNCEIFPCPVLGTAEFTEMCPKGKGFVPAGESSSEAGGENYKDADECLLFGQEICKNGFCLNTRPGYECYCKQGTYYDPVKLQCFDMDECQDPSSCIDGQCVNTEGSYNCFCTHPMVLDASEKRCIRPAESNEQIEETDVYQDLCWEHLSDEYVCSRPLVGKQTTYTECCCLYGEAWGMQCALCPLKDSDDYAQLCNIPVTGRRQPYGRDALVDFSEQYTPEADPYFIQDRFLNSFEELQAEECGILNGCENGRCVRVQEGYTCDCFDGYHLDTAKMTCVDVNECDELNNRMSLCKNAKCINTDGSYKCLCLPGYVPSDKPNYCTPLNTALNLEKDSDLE
The assay is described as follows: ELISA on immobilised antigen (Example 4), RLU, mean ± SD. In general terms: An ELISA detects its analyte on a solid surface through an enzyme-linked reagent.

In assay [15] the target is T8, proTGFβ1 alone (Homo sapiens (Human), UniProt P01137 30-390).
T8 construct: proTGFβ1 not in complex with a presenting molecule
The description is as above.

In assay [16] the target is T2, human LTBP1-proTGFβ1 complex. The experiment in a line: Octet binning; competitor (immobilized second antibody) SR-AB2. The method, then: as §2, §3
Target sequence in this assay (P01137 30-390 limits assumed, one chain of several): as the sequence (P01137 30-390 limits assumed, chain 2 of 2, one chain of several) above
Assay [17] shares this target. The experiment in a line: Octet (bio-layer interferometry), yeast expressed IgG1Agly antibody, antigen at a single 100 nM per Example 6, 1:1 fit; value printed under the panel.
Target sequence in this assay (P01137 30-390 limits assumed, one chain of several): as the sequence (P01137 30-390 limits assumed, chain 2 of 2, one chain of several) above
Assay [18] has as its target T4, mouse LTBP1-proTGFβ1 complex. The assay is described as above.
Target sequence in this assay (P04202 30-390 limits assumed, one chain of several): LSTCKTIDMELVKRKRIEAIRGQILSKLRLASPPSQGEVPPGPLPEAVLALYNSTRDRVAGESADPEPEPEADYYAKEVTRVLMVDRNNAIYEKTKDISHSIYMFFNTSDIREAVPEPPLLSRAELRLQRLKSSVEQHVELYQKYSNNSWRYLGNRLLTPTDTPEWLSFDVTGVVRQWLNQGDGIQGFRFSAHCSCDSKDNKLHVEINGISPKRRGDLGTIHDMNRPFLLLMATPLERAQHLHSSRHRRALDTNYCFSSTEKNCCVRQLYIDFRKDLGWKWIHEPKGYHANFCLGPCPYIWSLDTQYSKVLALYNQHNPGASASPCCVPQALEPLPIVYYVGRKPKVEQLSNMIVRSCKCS
Assay [19] deals with T2, human LTBP1-proTGFβ1 complex. The experiment in a line: bio-layer interferometry sensorgrams (y axis nm), concentration series with kinetic table under the panel; concentrations not shown.
Target sequence in this assay (P01137 30-390 limits assumed, one chain of several): as the sequence (P01137 30-390 limits assumed, chain 2 of 2, one chain of several) above
Assay [20] has as its target T4, mouse LTBP1-proTGFβ1 complex. Described as above.
Target sequence in this assay (P04202 30-390 limits assumed, one chain of several): as the sequence (P04202 30-390 limits assumed, one chain of several) above
For assay [21], the target named is T9, Rat LTBP1-proTGFβ1 (rat).
T9 construct: the sheet labels the whole complex 'Rat'; Named only on the sheet; The legend says only that SR-AB2 cross-reacts with rodent LTBP1-proTGFβ1
The assay is described as above.

T5 sequence (Q61810 other isoform, or with tags, fused parts or gaps limits assumed, chain 1 of 2): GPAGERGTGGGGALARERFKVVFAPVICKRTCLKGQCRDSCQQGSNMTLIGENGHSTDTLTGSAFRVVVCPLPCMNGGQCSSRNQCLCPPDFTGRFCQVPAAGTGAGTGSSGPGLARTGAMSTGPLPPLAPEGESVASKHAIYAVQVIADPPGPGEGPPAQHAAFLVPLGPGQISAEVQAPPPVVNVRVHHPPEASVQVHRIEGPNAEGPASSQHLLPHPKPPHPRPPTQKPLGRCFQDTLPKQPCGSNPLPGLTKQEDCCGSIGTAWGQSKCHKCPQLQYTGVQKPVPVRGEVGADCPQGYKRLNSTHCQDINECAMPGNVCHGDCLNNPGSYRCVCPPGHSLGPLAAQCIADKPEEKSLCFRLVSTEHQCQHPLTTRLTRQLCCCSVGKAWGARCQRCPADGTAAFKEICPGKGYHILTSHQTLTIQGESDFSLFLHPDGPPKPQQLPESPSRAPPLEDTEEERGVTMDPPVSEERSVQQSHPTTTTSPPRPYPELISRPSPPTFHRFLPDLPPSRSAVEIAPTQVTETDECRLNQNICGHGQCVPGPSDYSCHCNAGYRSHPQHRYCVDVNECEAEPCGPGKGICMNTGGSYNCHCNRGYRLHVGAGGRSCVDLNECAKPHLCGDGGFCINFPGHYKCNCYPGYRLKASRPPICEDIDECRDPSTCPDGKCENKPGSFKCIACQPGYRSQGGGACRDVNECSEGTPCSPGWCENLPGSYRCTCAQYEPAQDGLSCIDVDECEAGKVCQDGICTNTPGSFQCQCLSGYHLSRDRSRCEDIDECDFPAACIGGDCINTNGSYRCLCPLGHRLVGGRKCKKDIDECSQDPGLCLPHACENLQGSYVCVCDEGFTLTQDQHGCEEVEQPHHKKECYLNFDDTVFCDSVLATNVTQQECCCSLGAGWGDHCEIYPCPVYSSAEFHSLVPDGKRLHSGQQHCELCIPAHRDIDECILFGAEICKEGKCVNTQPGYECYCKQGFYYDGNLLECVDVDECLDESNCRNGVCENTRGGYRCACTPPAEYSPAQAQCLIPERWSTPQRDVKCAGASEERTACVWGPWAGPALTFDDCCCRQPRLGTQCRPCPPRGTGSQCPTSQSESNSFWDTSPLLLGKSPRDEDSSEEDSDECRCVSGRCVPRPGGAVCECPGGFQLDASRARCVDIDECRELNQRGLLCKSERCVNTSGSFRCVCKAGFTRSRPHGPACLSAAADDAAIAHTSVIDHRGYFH
T5 sequence (P04202 30-390 limits assumed, chain 2 of 2): as the sequence (P04202 30-390 limits assumed, one chain of several) above
T6 sequence (P01137 279-390 limits assumed): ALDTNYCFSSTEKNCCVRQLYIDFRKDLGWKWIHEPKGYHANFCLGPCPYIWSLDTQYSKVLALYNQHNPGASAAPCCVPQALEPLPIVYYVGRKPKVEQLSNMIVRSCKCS

B1: SR-AB43 (antibody, IgG1, V domains shown)
VH: QVQLVESGGGVVQPGRSLRLSCAASGFTFRSYVMHWVRQAPGKGLEWVAVISHEGSLKYYADSVKGRFTISRDNSKNTLYLQMNSLRAEDTAVYYCARPRIAARRGGFGYWGQGTLVTVSS
VL: NFMLTQPHSVSESPGKTVTISCTRSSGNIDYNYVQWYQQRPGSSPTTVIYEDNVRPSGVPDRFSGSIDSSSNSASLTISGLKTEDEADYYCQSYDSDNQRVVFGGGTKLTVL
notes: Cycle 3, lineage SR-AB23
B1: the binding result in [1] is “no binding (tested: antigen 100 nM)”. The Kd in [2] stood at 0.649 nM; in assay [3], 0.178 nM; in assay [4], 0.731 nM; in [5], 0.891 nM. Further, the koff was 0.000159 s⁻¹ in [2] and 6e-05 s⁻¹ in assay [3]. Further, the kon in assay [2] was 244000 M⁻¹ s⁻¹; in assay [3] it was 337000 M⁻¹ s⁻¹. The “IC50, endogenous hLTBP assay (CAGA12 luciferase)” value in assay [6] worked out at 1.76 nM. Further, the “IC50, mLTBP1 assay (CAGA12 luciferase)” value in assay [7] was 0.319 nM.

B2: SR-AB2 (antibody, V domains shown)
VH: QVQLVQSGAEVKKPGASVKVSCKASGYTFTSYGISWVRQAPGQGLEWMGWISAYNGNTNYAQKLQGRVTMTTDTSTSTAYMELRSLRSDDTAVYYCARAPLGNFDSWGQGTMVTVSS
VL: NFMLTQPHSVSESPGKTVTISCTRSSGSIASNYVQWYQQRPGSSPTTVIYEDNQRPSGVPDRFSGSIDSSSNSASLTISGLKTEDEADYYCQSYDSSNHPVVFGGGTKLTVL
Take B2: the normalized response is 1.11 fraction of uninhibited binding in assay [8], 1.31 fraction of uninhibited binding in assay [9], 1.54 fraction of uninhibited binding in [13] and 0.47 fraction of uninhibited binding in assay [16]. The binding result in assay [10] was “no binding (tested: 100 nM)”; in assay [11] it was “no binding (tested: 100 nM)”; in assay [12] it was “no binding”; in [14], “no binding”; in [15] it was “no binding”. For the same molecule, the Kd in assay [17] was 118 nM; in assay [18], 245 nM; in assay [19] it was 188 nM; in [20], 204 nM; in assay [21] it was 174 nM. For the same molecule, the kobs was determined as 0.0142 s⁻¹ in assay [19], 0.0134 s⁻¹ in [20] and 0.0176 s⁻¹ in [21]. Further, the koff in assay [19] amounted to 0.00502 s⁻¹; in [20] it was 0.00517 s⁻¹; in [21] it was 0.00582 s⁻¹. Further, the on-rate constant (kon) in assay [19] stood at 28400 M⁻¹ s⁻¹; in assay [20], 26600 M⁻¹ s⁻¹; in [21], 41900 M⁻¹ s⁻¹.
